Reference: patent US20250236669A1 (BIRD ROCK BIO, published 2025)

Key:
[1] = target: T1, native full length human CB1 receptor (TRex-CHO A156 cells) (human, UniProt P21554 1-472); assay: cell-based or functional assay
[2] = target: T1, native full length human CB1 receptor …; assay: cell-based or functional assay; remark: listed apart in the source
[3] = target: T2, human CB2 (on TRex-CHO cells) (human, UniProt P34972 1-360); assay: flow cytometry, mean fluorescence intensity against antibody concentration, TRex-CHO human CB2 cells
T2 construct: whole, on cells; also called TRexCHO Human CB2; CB2 expression cell line

[4] = target: T3, mouse CB1 (on TRex-CHO cells) (mouse, UniProt P47746 1-473); assay: flow cytometry, mean fluorescence intensity against antibody concentration, TRex-CHO mouse CB1 cells
T3 construct: whole, on cells; also called TRexCHO Mouse CB1

[5] = target: T1, native full length human CB1 receptor …; assay: cell-based or functional assay; remark: listed apart in the source
[6] = target: T1, native full length human CB1 receptor …; assay: cell-based or functional assay; remark: listed apart in the source
[7] = target: T1, native full length human CB1 receptor …; assay: cell-based or functional assay; remark: listed apart in the source
[8] = target: T1, native full length human CB1 receptor …; assay: cell-based or functional assay; remark: listed apart in the source
[9] = target: T1, native full length human CB1 receptor …; assay: cell-based or functional assay; remark: listed apart in the source
[10] = target: T1, native full length human CB1 receptor …; assay: cell-based or functional assay; remark: listed apart in the source
[11] = target: T3, mouse CB1 (on TRex-CHO cells); assay: flow cytometry on cells expressing mouse CB1

T2 sequence (P34972 whole entry): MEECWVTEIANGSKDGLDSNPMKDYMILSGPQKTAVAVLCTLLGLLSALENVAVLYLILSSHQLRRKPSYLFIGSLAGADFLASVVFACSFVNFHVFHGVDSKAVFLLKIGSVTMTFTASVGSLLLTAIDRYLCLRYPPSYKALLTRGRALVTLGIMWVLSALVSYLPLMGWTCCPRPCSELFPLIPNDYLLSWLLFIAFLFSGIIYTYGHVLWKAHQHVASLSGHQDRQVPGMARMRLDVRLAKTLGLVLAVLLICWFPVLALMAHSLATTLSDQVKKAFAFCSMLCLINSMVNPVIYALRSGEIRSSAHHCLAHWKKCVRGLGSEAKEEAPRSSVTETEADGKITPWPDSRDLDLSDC
T1 sequence (P21554 whole entry): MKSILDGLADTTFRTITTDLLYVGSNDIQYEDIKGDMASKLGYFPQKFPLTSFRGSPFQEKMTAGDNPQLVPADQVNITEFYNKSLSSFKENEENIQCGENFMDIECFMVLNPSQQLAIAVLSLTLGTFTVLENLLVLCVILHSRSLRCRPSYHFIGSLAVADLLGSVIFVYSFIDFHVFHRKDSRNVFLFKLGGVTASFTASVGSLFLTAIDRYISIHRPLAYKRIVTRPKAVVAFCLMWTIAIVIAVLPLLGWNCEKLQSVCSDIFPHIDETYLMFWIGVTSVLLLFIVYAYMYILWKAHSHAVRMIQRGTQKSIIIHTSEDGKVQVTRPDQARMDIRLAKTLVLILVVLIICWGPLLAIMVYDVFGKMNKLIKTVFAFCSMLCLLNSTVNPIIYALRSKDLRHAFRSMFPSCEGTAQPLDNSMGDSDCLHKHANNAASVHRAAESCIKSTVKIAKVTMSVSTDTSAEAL
T3 sequence (P47746 whole entry): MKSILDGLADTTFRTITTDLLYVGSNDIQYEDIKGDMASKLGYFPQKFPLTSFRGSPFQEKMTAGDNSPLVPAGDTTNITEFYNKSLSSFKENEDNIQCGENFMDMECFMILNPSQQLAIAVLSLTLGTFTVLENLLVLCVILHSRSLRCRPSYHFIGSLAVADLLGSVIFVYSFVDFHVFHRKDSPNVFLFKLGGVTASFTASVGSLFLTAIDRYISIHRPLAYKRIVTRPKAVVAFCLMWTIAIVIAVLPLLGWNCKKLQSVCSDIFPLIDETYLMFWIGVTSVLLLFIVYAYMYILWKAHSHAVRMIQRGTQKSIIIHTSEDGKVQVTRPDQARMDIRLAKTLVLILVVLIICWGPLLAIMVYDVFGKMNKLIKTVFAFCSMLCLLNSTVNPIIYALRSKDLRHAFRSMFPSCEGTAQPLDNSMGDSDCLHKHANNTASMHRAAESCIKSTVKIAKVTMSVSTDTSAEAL

B1: P1C4-h2 Fab (Fab, V domains shown)
VH: QVQLVQSGAEVKKPGSSVKVSCKASGYEFSYYWMNWVRQAPGQGLEWMGQIYPGDGETKYAQKFQGRVTITADKSTSTAYMELSSLRSEDTAVYYCARSHGNYLPYWGQGTLVTVSS
VL: EIVLTQSPATLSLSPGERATLSCRASQSVSSSYLHWYQQKPGQAPRLLIYSTSNLASGIPARFSGSGSGTDFTLTISRLEPEDFAVYYCHQYHRSPPTFGQGTKVEIK
- IC50 cAMP assay (Fab), CB1 TRex CHO cells [1]: 52 nM
- IC50 (read off the curve) [2]: ~30 nM

B2: P1C4-h4 Fab (Fab, V domains shown)
VH: QVQLVQSGAEVKKPGSSVKVSCKASGYEFSYYWMNWVRQAPGQGLEWMGQIYPGDGETKYNGKFQGRVTITADKSTSTAYMELSSLRSEDTAVYYCARSHGNYLPYWGQGTLVTVSS
VL: EIVLTQSPATLSLSPGERATLSCRASQSVSSSYLHWYQQKPGQAPRLLIYSTSNLASGIPARFSGSGSGTDFTLTISRLEPEDFAVYYCHQYHRSPPTFGQGTKVEIK
- IC50 cAMP assay (Fab), CB1 TRex CHO cells [1]: 43 nM
- IC50 (read off the curve) [2]: ~40 nM

B3: P1C4-h2-IgG1 (antibody)
heavy: not shown
light: EIVLTQSPATLSLSPGERATLSCRASQSVSSSYLHWYQQKPGQAPRLLIYSTSNLASGIPARFSGSGSGTDFTLTISRLEPEDFAVYYCHQYHRSPPTFGQGTKVEIKRTVAAPSVFIFPPSDEQLKSGTASVVCLLNNFYPREAKVQWKVDNALQSGNSQESVTEQDSKDSTYSLSSTLTLSKADYEKHKVYACEVTHQGLSSPVTKSFNRGEC
- binding result [3]: no binding (tested: about 300 nM)
- binding result [4]: no binding (tested: about 300 nM)

B4: P1C4-H4-IgG4 (antibody)
heavy: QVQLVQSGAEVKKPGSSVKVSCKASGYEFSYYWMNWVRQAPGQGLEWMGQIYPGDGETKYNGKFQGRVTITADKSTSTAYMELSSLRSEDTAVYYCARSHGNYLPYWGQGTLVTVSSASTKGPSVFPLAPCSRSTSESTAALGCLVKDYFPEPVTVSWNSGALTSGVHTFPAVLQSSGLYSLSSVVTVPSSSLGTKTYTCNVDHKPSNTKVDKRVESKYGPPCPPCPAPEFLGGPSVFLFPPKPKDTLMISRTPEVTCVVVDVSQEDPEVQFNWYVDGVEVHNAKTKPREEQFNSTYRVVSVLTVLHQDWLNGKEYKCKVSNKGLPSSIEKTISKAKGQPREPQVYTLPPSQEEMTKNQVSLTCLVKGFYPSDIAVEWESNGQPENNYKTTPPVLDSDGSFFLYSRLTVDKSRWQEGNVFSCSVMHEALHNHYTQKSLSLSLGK
light: EIVLTQSPATLSLSPGERATLSCRASQSVSSSYLHWYQQKPGQAPRLLIYSTSNLASGIPARFSGSGSGTDFTLTISRLEPEDFAVYYCHQYHRSPPTFGQGTKVEIKRTVAAPSVFIFPPSDEQLKSGTASVVCLLNNFYPREAKVQWKVDNALQSGNSQESVTEQDSKDSTYSLSSTLTLSKADYEKHKVYACEVTHQGLSSPVTKSFNRGEC
- cAMP IC50, antagonist assay; CHO-S batch [n] [5]: 51 nM
- cAMP IC50, antagonist assay; Mean of Batch 1 [n] [5]: 54 nM
- cAMP IC50, antagonist assay; Mean of Batch 2 [n] [5]: 54 nM
- IC50, cAMP activity; after dialysis to pH 3 and 48 h at 40 C [6]: 139 nM
- IC50, cAMP activity; after dialysis to pH 9 and 48 h at 40 C [6]: 64 nM
- IC50, potency (cAMP); at 4 C for 33 days [7]: 62 nM
- IC50, potency (cAMP); at 40 C for 33 days [7]: 71 nM
- IC50, cAMP antagonist assay; after 5 freeze/thaw cycles [8]: 32 nM

B5: P1C4-h4-IgG1 (antibody)
heavy: not shown
light: EIVLTQSPATLSLSPGERATLSCRASQSVSSSYLHWYQQKPGQAPRLLIYSTSNLASGIPARFSGSGSGTDFTLTISRLEPEDFAVYYCHQYHRSPPTFGQGTKVEIKRTVAAPSVFIFPPSDEQLKSGTASVVCLLNNFYPREAKVQWKVDNALQSGNSQESVTEQDSKDSTYSLSSTLTLSKADYEKHKVYACEVTHQGLSSPVTKSFNRGEC
notes: also called P1C4-H4 (YENG); P1C4-H4 (YENG)-IgG
- binding result [3]: no binding (tested: about 300 nM)
- binding result [4]: no binding (tested: about 300 nM)

B6: P1C4-h0-IgG1 (antibody, V domains shown)
VH: QVQLVQSGAEVKKPGSSVKVSCKASGGTFSYYWMNWVRQAPGQGLEWMGQIYPGDGETKYAQKFQGRVTITADKSTSTAYMELSSLRSEDTAVYYCARSHGNYLPYWGQGTLVTVSS
VL: EIVLTQSPATLSLSPGERATLSCRASQSVSSSYLHWYQQKPGQAPRLLIYSTSNLASGIPARFSGSGSGTDFTLTISRLEPEDFAVYYCHQYHRSPPTFGQGTKVEIKR
- IC50, cAMP functional assay, native human CB1 TRex-CHO cells [9]: 146 nM
- cAMP IC50, antagonist assay; Mean of Batch 1 [n] [5]: 158 nM
- cAMP IC50, antagonist assay; Mean of Batch 2 [n] [5]: 343 nM
- binding result [3]: no binding (tested: about 300 nM)
- binding result [4]: no binding (tested: about 300 nM)

B7: PA2LR3-P6G7 (chimeric) (antibody, human IgG1, kappa, V domains shown)
VH: EVQLQQSGAELVRPGSSVKISCKASGFAFSNYWMNWVKQRPGQGLEWIGQIYPGDGDTNFNGKFKGRAILTADISSNTAYMQLSSLTSEDSAVYFCARSHGNYFPYWGQGTLVTVSA
VL: DIVLTQSPAIMSASLGERVTMTCTASSSVSSSYLHWYQQKPGSSPKLWIYSTSNLASGVPARFSGSGSGTSYSLTISSMEAEDAATYYCHQHHRSPPTFGAGTKLELKR
- EC50, cAMP agonist functional assay, CB1 TRex CHO cells [10]: > 300 nM

B8: PA2LR3-P4B1 (chimeric) (antibody, human IgG1, kappa, V domains shown)
VH: EVQLQQSGAELVRPGSSVKISCKASGFAFSNYWMNWVKQRPGQGLEWIGQIYPGDGDTNFNGKFKGRAILTADISSNTAYMQLSSLTSEDSAVYFCARSHGNYFPYWGQGTLVTVSA
VL: QIVLTQSPAIMSASLGERVTMTCTASSSVSSSYLHWYQQKPGSSPKLWIYSTSNLASGVPARFSGSGSGTSYSLTISSMEAEDAATYYCHQYHRSPLTFGAGTKLELKR
- EC50, cAMP agonist functional assay, CB1 TRex CHO cells [10]: > 300 nM

B9: PA2LR3-P6B12 (chimeric) (antibody, human IgG1, kappa, V domains shown)
VH: EVQLQQSGAELVRPGSSVKISCKASGYAFSYYWMNWVKQRPGQGLEWIGQIYPGDGDTNYNGKFKGKATLTADKSSSTAYMQLSSLTSEDSAVYFCARSHGNYFAYWGQGTLVTVSA
VL: QIVLTQSPAIMSASLGERVTMTCTASSSVSSSYLHWYQQKPGSSPKLWIYSTSNLASGVPARFSGSGSGTSYSLTISSMEAEDAATYYCHQYHRSPLAFGAGTKLELKR
- EC50, cAMP assay in the presence of CP55940, CB1 TRex CHO cells [10]: ~1000 nM

B10: PA2LR3-P2D3 (chimeric) (antibody, human IgG1, kappa, V domains shown)
VH: EVQLQQSGAELVRPGSSVKISCKASGYAFSYYWMNWVKQRPGQGLEWIGQIYPGDGDTNYNGKFKGKATLTADKSSSTAYMQLSSLTSEDSAVYFCARSHGSYFAYWGQGTLVTVSA
VL: DIELAQSPASLAVSLGQRATISCRASESVDSYGNSFMHWYQQKPGQPPKLLIYLASNLESGVPARFSGSGSRADFTLTIDPVEADDAATYYCLQYASSPPTFGAGTKLEIKR
- EC50, cAMP agonist functional assay, CB1 TRex CHO cells [10]: > 300 nM

B11: 36E12B6C2 IgG (antibody, V domains shown)
VH: QVQLQQSGAELVRPGSSVKISCKASGYEFSYYWMNWVKQRPGQGLQWIGQIYPGDGDTNYNGKFKGKATLTADKSSSTAYMHLTSLTSEDSAVYFCARSGGNPFAFWGQGTLVTVSA
VL: DIQMTQTSSSLSASLGDRVTFSCRASQDISNYLNWYQQKPDGTVKLLIYYTSRLHSGVTSRFRGSGSGTDYSLTISNLEQEDVATYFCQQGHTLPWSFGGGTKLEIKR
notes: Hybridoma-derived
- binding result [11]: no binding
